Consider 3 substances from patent publication US20200207869A1.

Experiment [1] addresses VWF in the plasma of the mice (endogenous murine VWF) (murine) (UniProt Q8CIZ8). As to the kind of experiment: sandwich ELISA of mouse plasma, anti-VWF capture, anti-FVIII detection; reference arbitrarily set as 100%.
The target is the same in experiment [2]. As to the kind of experiment: sandwich ELISA of mouse plasma, anti-VWF capture, anti-FVIII detection. For orientation: In an ELISA, binding on a coated surface is turned into a signal by an enzyme label.
Experiment [3] addresses purified recombinant human VWF (human) (UniProt P04275). As to the kind of experiment: BLI (Octet-QK), rhVWF immobilized, FVIII 1.4 nM, single exponential decay.
For experiment [4] the target is unchanged. As to the kind of experiment: BLI (Octet-QK), rhVWF immobilized, FVIII 3.5 nM, single exponential decay.

The substance “wild-type B-domainless FVIII (WT-FVIII-SQ) (from UniProt P00451 20-2351)” displayed a VWF-FVIII complex relative to WT-FVIII-SQ in experiment [1] of 100%.

“B-domainless FVIII containing a Tyr to Phe replacement at position 1680 (FVIII-SQ/p.Y1680F) (from UniProt P00451 20-2351)”: the VWF-FVIII complex relative to WT-FVIII-SQ in experiment [2] turned out to be 8%. As to “purified recombinant full-length factor VIII (Kogenate), P00451 20-2351”, the koff – broadly, the first-order rate constant of dissociation – in experiment [3] was found to be 0.003 s⁻¹; in experiment [4], 0.0022 s⁻¹.
